# Patent US20160289280A1, “Fusion protein of recombinant ganoderma immunoregulatory protein and human serum albumin, preparation method thereof, and application thereof” (priority 2013, published 2016)
# Marks after values point to notes of the source that are not given here.
# B1: rLZ-8: recombinant ganoderma immunoregulatory protein which is not fused, comparator (protein, UniProt P14945 2-111, looked up)
# Immunomodulatory protein Ling …: SDTALIFRLAWDVKKLSFDYTPNWGRGNPNNFIDTVTFPKVLTDKAYTYRVAVSGRNLGVKPSYAVESDGSQKVNFLEYNSGYGIADTNTIQVFVVDPDTNNDFIIAQWN
# Columns and labels:
# platelets = assay: treatment of mouse thrombocytopenia caused by cyclophosphamide, platelet count; format: in vivo; conditions: for platelets after: after cyclophosphamide, before treatment; for platelets before: baseline before cyclophosphamide
# Procedure: Experimental medicine: preparing a 19.25 μg·kg^−1 and a 9.625 μg·kg^−1 dosage groups of the recombinant ganoderma immunoregulatory protein (rLZ-8) with sterile injection water, and 0.2 ml per mouse; and preparing a 19.25 μg·kg^−1 and a 9.625 μg·kg^−1 dosage groups (judging from the LZ-8) of the fusion protein rLZ-8-HSA of the recombinant ganoderma immunoregulatory protein.
# Positive control medicine: thrombopoietin (THPO) from Shenyang 3SBio Inc., with a dosage of 770 μg·kg^−1/d and 0.2 ml per mouse.
# Chemotherapy medicine: cyclophosphamide (Cy) from Jiangsu Hengrui Medicine Co., Ltd, whose batch number is 12112121, 200 mg/bottle; preparing into 100 mg·kg^−1, 0.2 ml per mouse with sterile injection water.
# Platelet dilution: urea: 1.3 g; sodium citrate: 0.5 g; formaldehyde: 0.1 ml; adding distilled water to 100 ml for mixing, then filtering for further utilization.
# Experimental method: dividing experimental animals into 5 groups, wherein each group comprises 10 mice with 5 males and 5 females; except for a normal control group (injected with normal saline having an equal volume), abdominally injecting the cyclophosphamide to the mice with a dosage of 100 mg·kg^−1, 0.2 ml per mouse per day, and lasting for three days; when a platelet quantity decreased to below 300×10^9/L, subcutaneously injecting the rLZ-8, the fusion protein rLZ-8-HAS (19.25 μg·kg^−1, 9.625 μg·kg^−1, 0.2 ml·per mouse per day) and the positive medicine (THPO 770 μg·kg^−1, 0.2 ml·per mouse per day) according to the above groups with corresponding dosages, and injecting the normal saline having the equal volume to the normal control group and a CP group; respectively sampling mouse tail vein blood 3 d, 7 d and 14 d after treatment, counting platelets with high power lens, wherein results thereof are listed in table 7.
# [1] = system: mouse melanoma cells B16-F10; assay: mouse B16-F10 transplanted tumor model, in situ tumor weight; format: in vivo; conditions: tail vein once a day, 28 days
# Procedure: In vivo experiment: firstly, establishing a mouse tumor mould, wherein mouse melanoma cells B16-F10 is cultured with the DMEM comprising 10% fetal calf serum at 37° C. in a CO2 incubation device; slowly subcutaneously injecting 200 μl B16-F10 cell suspension (comprising 1×10^7 cells) with a 1 ml injector at mouse dorsal-ventral skin, so as to establish a mouse transplanted tumor mould.
# mouse spleen cells = assay: promotion of mouse spleen cell proliferation, WST-1 method; format: cell-based; conditions: 24 h, x ± s, n = 9
# Procedure: Testing effects of the fusion proteins on mouse spleen cell proliferation by a WST-1 method, which illustrates strength of biological activity, wherein according to the present invention, BALB/c female mice are used, whose weight is controlled at 20-22 g; executing the mice by stretching necks thereof, taking out spleens under a sterile condition, and putting into a plate with 5 ml DMEM comprising 10% calf serum; cracking the spleens with tweezers, filtering tissue suspension with gauze for removing tissue blocks, and preparing cell suspension of spleen cells; adding 100 μl the tissue suspension into 900 μl 2% glacial acetic acid for counting with a microscope; adjusting a cell concentration to 5×10^6/ml with DMEM comprising 2% calf serum; respectively preparing the fusion proteins and the rLZ-8 with same molar concentration gradient, wherein there are 3 gradient concentrations, each concentration occupies 9 wells with 100 μl per well; adding tissue suspension with a concentration of 5×10^6/ml with 100 μl per well; shaking for evenly mixing, and then putting into a 37° C., 5% CO2 incubation device to incubate for 24 h; after incubation, adding WST-1 with 20 μl per well; putting into the 37° C., 5% CO2 incubation device to incubate for 3 h, then testing OD450 (with a BIO-RAD); wherein results are listed in table 1.
# leukocytes = assay: treatment of rat models with leucopenia caused by cyclophosphamide, leukocyte count; format: in vivo; conditions: for leukocyte number before: baseline after CP modeling, before treatment
# Text: Utilizing Wistar rats in the experiments, wherein 18 rats weighing about 100 g are utilized. […] The experiment has an rLZ-8 low-dosage group, an rLZ-8 middle-dosage group, an rLZ-8 high-dosage group, an rLZ-8-HSA low-dosage group, an rLZ-8-HSA middle-dosage group, an rLZ-8-HSA high-dosage group, and a positive medicine control group (utilizing the […]®). […] On the third day, the blood is sampled from the tail vein, and the leukocytes are counted by a cytoanalyzer. After successful modeling, the rats of each the group are respectively treated with the rLZ-8, the three kinds of the fusion proteins, or the positive medicine (the […]®) with the corresponding dosage, and the equal sterile saline is given to the rats of the normal control and a CP group. The blood is sampled from the tail vein on the first, third and seventh treatment days, and the leukocytes are counted by the cytoanalyzer. Medicine efficacy is analyzed according to a number difference of the leukocyte between before and after the treatment.
# melanoma = assay: in vitro inhibition effect on melanoma, WST-1 method; format: cell-based; conditions: 24 h, x ± s, n = 9
# Procedure: In vitro experiment: testing the inhibition effect of the fusion protein rLZ-8-HSA on the melanoma through a WST-1 method, preparing tissue suspension of the melanoma; adding 100 μl the tissue suspension into 900 μl 2% glacial acetic acid and counting with a microscope; adjusting a tissue concentration to 2×10^5/ml with DMEM comprising 2% calf serum; respectively preparing the fusion protein rLZ-8-HSA and the rLZ-8 with same molar concentration gradient, wherein there are 3 gradient concentrations, each concentration occupies 9 wells with 100 μl per well; adding tissue suspension with a concentration of 2×10^5/ml with 100 μl per well; shaking for evenly mixing, and then putting into a 37° C., 5% CO2 incubation device to incubate for 24 h; after incubation, adding WST-1 with 20 μl per well; putting into the 37° C., 5% CO2 incubation device to incubate for 3 h, then testing OD450 (with a BIO-RAD); wherein results are listed in table 3.
# [2] = 9.625 μg·kg^−1 (LZ-8) subcutaneously per day
# [3] = 19.25 μg·kg^−1 (LZ-8) subcutaneously per day
# [4] = high-dosage 60 μg/kg (LZ-8 dosage)
# [5] = low-dosage 15 μg/kg (LZ-8 dosage)
# [6] = middle-dosage 30 μg/kg (LZ-8 dosage)
molecule,measurement,setting,value
B1,platelets 3rd day,platelets; [2],483 ± 0.45 *10^9/L
same,platelets 7th day,platelets; [2],585 ± 0.78 *10^9/L
same,platelets 14th day,platelets; [2],898 ± 0.61* *10^9/L
same,platelets after,platelets; 9.625 μg·kg^−1 group,201 ± 0.41 *10^9/L
same,platelets before,platelets; 9.625 μg·kg^−1 group,839 ± 0.40 *10^9/L
same,platelets 3rd day,platelets; [3],501 ± 0.48 *10^9/L
same,platelets 7th day,platelets; [3],680 ± 0.28 *10^9/L
same,platelets 14th day,platelets; [3],1021 ± 0.31** *10^9/L
same,platelets after,platelets; 19.25 μg·kg^−1 group,226 ± 0.78 *10^9/L
same,platelets before,platelets; 19.25 μg·kg^−1 group,946 ± 0.45 *10^9/L
same,tumor inhibition rate,[1]; high-dosage 492 μg/kg (LZ-8),83.04 ± 0.51 %
same,tumor weight,[1]; high-dosage 492 μg/kg (LZ-8),0.25 ± 0.04 g
same,tumor inhibition rate,[1]; low-dosage 123 μg/kg (LZ-8),56.72 ± 0.41%
same,tumor weight,[1]; low-dosage 123 μg/kg (LZ-8),0.53 ± 0.21 g
same,tumor inhibition rate,[1]; middle-dosage 246 μg/kg (LZ-8),64.91 ± 0.77%
same,tumor weight,[1]; middle-dosage 246 μg/kg (LZ-8),0.43 ± 0.17 g
same,"OD450, promotion of cell proliferation",mouse spleen cells; protein 5.0 × 10^−9 mol/L,0.739 ± 0.23
same,"OD450, promotion of cell proliferation",mouse spleen cells; protein 10.0 × 10^−9 mol/L,1.197 ± 0.31
same,"OD450, promotion of cell proliferation",mouse spleen cells; protein 15.0 × 10^−9 mol/L,1.567 ± 0.27
same,leukocyte number on the first treatment day,leukocytes; [4],5.4e+09 L⁻¹
same,leukocyte number on the seventh treatment day,leukocytes; [4],1.45e+10 L⁻¹
same,leukocyte number on the third treatment day,leukocytes; [4],9.6e+09 L⁻¹
same,leukocyte number before,leukocytes; [4],4.09e+09 L⁻¹
same,leukocyte number on the first treatment day,leukocytes; [5],4.6e+09 L⁻¹
same,leukocyte number on the seventh treatment day,leukocytes; [5],1.12e+10 L⁻¹
same,leukocyte number on the third treatment day,leukocytes; [5],9.3e+09 L⁻¹
same,leukocyte number before,leukocytes; [5],3.71e+09 L⁻¹
same,leukocyte number on the first treatment day,leukocytes; [6],5.1e+09 L⁻¹
same,leukocyte number on the seventh treatment day,leukocytes; [6],1.278e+10 L⁻¹
same,leukocyte number on the third treatment day,leukocytes; [6],9.7e+09 L⁻¹
same,leukocyte number before,leukocytes; [6],3.12e+09 L⁻¹
same,"OD450, inhibition effect on melanoma",melanoma; protein 5.0 × 10^−9 mol/L,0.427 ± 0.44
same,"OD450, inhibition effect on melanoma",melanoma; protein 10.0 × 10^−9 mol/L,0.372 ± 0.21
same,"OD450, inhibition effect on melanoma",melanoma; protein 15.0 × 10^−9 mol/L,0.302 ± 0.24
